Laboratory results from PMC6404747.

Biological target: Smurf (UniProt Q9V853)
Assay: co-IP Myc-Smo / Fg-Smurf
Conditions: reference: wild-type Myc-Smo plus Hh; sites S667,S687,S740

binding against the reference: stronger
Substance: Smoothened (Smo) (from UniProt P91682) Myc-SmoSA plus Hh
